Assay results as given in paper PMC7078148, “Interactions of 17β-Hydroxysteroid Dehydrogenase Type 10 and Cyclophilin D in Alzheimer's Disease” (Neurochemical Research, 2020).

Target: T1, human full length recombinant 17β-hydroxysteroid dehydrogenase type 10 protein (His tag) (human, UniProt Q99714 1-261)
T1 construct: 17β-hydroxysteroid dehydrogenase type 10, human, full length recombinant protein; The tetramer was not measured here; The His tag and 'full length' are stated only in the co-immunoprecipitation methods; The SPR reagent is described as human recombinant protein from the same supplier, with no catalogue number; also called 17β-HSD10; ERAB; source: bought: Fitzgerald (Fitzgerald Industries …)
T1 sequence (looked up): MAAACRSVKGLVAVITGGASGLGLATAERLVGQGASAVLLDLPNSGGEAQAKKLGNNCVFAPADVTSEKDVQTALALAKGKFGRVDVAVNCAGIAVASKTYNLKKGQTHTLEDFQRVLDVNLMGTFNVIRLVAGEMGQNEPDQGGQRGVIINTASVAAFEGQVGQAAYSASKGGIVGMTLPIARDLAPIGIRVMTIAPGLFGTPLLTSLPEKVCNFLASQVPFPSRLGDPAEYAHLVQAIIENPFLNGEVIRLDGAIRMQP
Test: SPR; cypD captured (response 1.5 nm) on amine-coupled anti-cypD antibody; 17β-HSD10 at 6, 10, 30, 60 and 100 nM injected 10 min, dissociation 15 min; HEPES 10 mM pH 7.4 with 250 µg/ml BSA, 15 mM KCl, 0.1 mM MgCl2; 25 °C, 20 µl/min; reference channel without cypD subtracted; global fit, 1:1 Langmuir model with mass transport
Settings: both partners purified

B1: human full length cyclophilin D protein (His tag) (enzyme)
chain: not shown
notes: cyclophilin D (mitochondrial peptidyl-prolyl cis-trans isomerase F), human, full length recombinant protein; The His tag and 'full length' are stated only in the co-immunoprecipitation methods; also called cypD; PPIF; source: bought: Fitzgerald (Fitzgerald Industries International), recombinant
Kd: 0.35 nM | koff: 5.8e-05 s⁻¹
